Reference: publication PMC10925046, “TERRA-LSD1 phase separation promotes R-loop formation for telomere maintenance in ALT cancer cells”

Key:
LSD1 deltaIDR;CoREST = LSD1 deltaIDR;CoREST (human;human?, UniProt O60341;Q9UKL0 171-852;289-485, |); assay: pull-down; EMSA: 4 C, 5 min, 0.75% agarose in 1x THE pH 7.4 (34 mM Tris, 66 mM HEPES, 0.1 mM EDTA) + 0.1 M K acetate, RNA folded in 10 mM Tris pH 7.4, 100 mM KCl, 1 mM TCE
LSD1 deltaIDR 3KE;CoREST = LSD1 deltaIDR 3KE;CoREST (human;human?, UniProt O60341;Q9UKL0 171-852;289-485, K355E;K357E;K359E|); assay: as above

UUAGGGUUAGGGUUAGGGUUAGGGUUAGGGUUAGGGUUAGGGUUAGGG (structured_RNA) [biotin-TERRA (UUAGGG)8]
binding result (LSD1 deltaIDR;CoREST): binds | binding result (LSD1 deltaIDR 3KE;CoREST): no binding
